± gives the uncertainty stated by the source.
B1: Receptor-interacting serine/threonine-protein kinase 2, residues 438 to 518; numbered along this chain, O43353 (parent)
chain: QWIQSKREDIVNQMTEACLNQSLDALLSRDLIMKEDYELVSTKPTRTSKVRQLLDTTDIQGEEFAKVIVQKLKDNKQMGLQ

Variants of: B1
Test: abundance fitness (aPCA) (normalised: wild type 0, dead -1); higher = more abundant; growth selection in yeast, the domain comes from the species named
Details: Homo sapiens

Variant	abundance fitness
QWIQSKREDIVNQMTEACLNQSLDALLSLDLIMKEDYELVSTKPTRTSKVRQLLDTTDIQGEEFAKVIVQKLKDNKQMGLQ	0.01 ± 0.07
QWIQSKREDIVNQMTEACLNQSLDALLSRDLIMKEDYELVSTKPTRTSKVRQLLDTTDIQGEPFAKVIVQKLKDNKQMGLQ	-0.432 ± 0.068
QWIQSKREDIVNQMTEACLNQSLDALLSRDLIMKEDYELVSTKPTRTSKVRQLLDTTDIQGEEYAKVIVQKLKDNKQMGLQ	-0.448 ± 0.17
QWIQSKREDIVNQMTEACLNQSLDALLSRDLIMKEDYELVSTKPTRTDKVRQLLDTTDIQGEEFAKVIVQKLKDNKQMGLQ	0.065 ± 0.096
QWIQSKREDIVNQMTEACLNQSLDALLSRDLIMKEDYELVSTKPTRTSKVRQLLDTTDIWGEEFAKVIVQKLKDNKQMGLQ	-0.745 ± 0.12
QWIQSKREDIVNQMTEACLNQSLDALLSRDLIMKEDYELVSTKPTRTSKVRQLLDTTDIQGEEFAKVIVQKLKDNHQMGLQ	-0.069 ± 0.15
QWIQSKREDIVNQMTEACLNQSLDALLSRDLIMKEDYELVSTKPTRTSKVRQLLDTTDIQGEEFAKVIVQKLKDNDQMGLQ	-0.192 ± 0.14
QWIQSKREDIVNQMTEACLNQSLDALLSRDLIMKEDYELVSQKPTRTSKVRQLLDTTDIQGEEFAKVIVQKLKDNKQMGLQ	0.207 ± 0.13
QWIQSKREDIVNQMTEACLNQSLDALRSRDLIMKEDYELVSTKPTRTSKVRQLLDTTDIQGEEFAKVIVQKLKDNKQMGLQ	-0.157 ± 0.068
QWIQSKREDIVNQMTEACLNQSLDALLSRDLIMKEDYELVSTKPTRTSKVRQLLDVTDIQGEEFAKVIVQKLKDNKQMGLQ	0.108 ± 0.056
QWIQSKREDIVNQMTEACLNQSLDALLSRDLIMKEDYELVSTKPTRTSKVRQLLDYTDIQGEEFAKVIVQKLKDNKQMGLQ	0.046 ± 0.083
QWIQSKREDIVIQMTEACLNQSLDALLSRDLIMKEDYELVSTKPTRTSKVRQLLDTTDIQGEEFAKVIVQKLKDNKQMGLQ	-0.486 ± 0.21
QWIQSKREDIVNQMTEACLNQSLDALLSRDLIMKEDYELVSTKPTRTSKVRQLLDTTDIQGEEFAKVWVQKLKDNKQMGLQ	-0.958 ± 0.16
QWIQSKREDIVNQMTEACLNQSVDALLSRDLIMKEDYELVSTKPTRTSKVRQLLDTTDIQGEEFAKVIVQKLKDNKQMGLQ	-0.509 ± 0.11
QWIQSKREDIVNQMTEACLNQSLDALLSRDLIMKEDYELVSTKPTETSKVRQLLDTTDIQGEEFAKVIVQKLKDNKQMGLQ	-0.214 ± 0.16
QWIQSKREDIVNQMTEACLNQSLDALLSRDLIMKEDYELVSTKPTATSKVRQLLDTTDIQGEEFAKVIVQKLKDNKQMGLQ	-0.674 ± 0.11
QWIQSKREDIVNQMTEACLNQSLDALLSRDLIMKEDYELVSTKHTRTSKVRQLLDTTDIQGEEFAKVIVQKLKDNKQMGLQ	-0.761 ± 0.2

Variant	abundance fitness
QWIQSKREDIVNQMTEACLNQSLDALLSRDLIMDEDYELVSTKPTRTSKVRQLLDTTDIQGEEFAKVIVQKLKDNKQMGLQ	-0.448 ± 0.24
QWIQSKREDICNQMTEACLNQSLDALLSRDLIMKEDYELVSTKPTRTSKVRQLLDTTDIQGEEFAKVIVQKLKDNKQMGLQ	-0.288 ± 0.09
QWIQSKREDIVNQMTEACQNQSLDALLSRDLIMKEDYELVSTKPTRTSKVRQLLDTTDIQGEEFAKVIVQKLKDNKQMGLQ	-0.351 ± 0.14
QWIQSKREDIVNQMTEACFNQSLDALLSRDLIMKEDYELVSTKPTRTSKVRQLLDTTDIQGEEFAKVIVQKLKDNKQMGLQ	-0.833 ± 0.27
QWIQSKREDIVNQMTEACLNGSLDALLSRDLIMKEDYELVSTKPTRTSKVRQLLDTTDIQGEEFAKVIVQKLKDNKQMGLQ	-0.432 ± 0.064
QWIQSKREDIVNQMTEACLNQSLDAALSRDLIMKEDYELVSTKPTRTSKVRQLLDTTDIQGEEFAKVIVQKLKDNKQMGLQ	-0.313 ± 0.059
QWIQSKREDIVNQMTEACLNQSLDALLSRDLIMKEDYELVSTKPTRTSKVRQLLDTTDIQGQEFAKVIVQKLKDNKQMGLQ	-0.943 ± 0.15
QWIQSKREDIVNQMTEACLNQSLDALLSRDLIMKEDYELVSTKPTRTSKVRQLLDTTDIQGFEFAKVIVQKLKDNKQMGLQ	-0.741 ± 0.25
QWIQSKREDIVNQMYEACLNQSLDALLSRDLIMKEDYELVSTKPTRTSKVRQLLDTTDIQGEEFAKVIVQKLKDNKQMGLQ	-0.946 ± 0.31
QWIQSKREDIVNQMCEACLNQSLDALLSRDLIMKEDYELVSTKPTRTSKVRQLLDTTDIQGEEFAKVIVQKLKDNKQMGLQ	-0.877 ± 0.16
QWIQSKREDIVNQMNEACLNQSLDALLSRDLIMKEDYELVSTKPTRTSKVRQLLDTTDIQGEEFAKVIVQKLKDNKQMGLQ	-0.518 ± 0.093
QWIQSKREDIVNQMTEACLNQSLDALLSRDLIMKYDYELVSTKPTRTSKVRQLLDTTDIQGEEFAKVIVQKLKDNKQMGLQ	-0.514 ± 0.21
QWIQSKREDIVNQMTEACLNQSLDALLSRDLIMKIDYELVSTKPTRTSKVRQLLDTTDIQGEEFAKVIVQKLKDNKQMGLQ	-1.12 ± 0.47
QWIQSKREDIVNQMTEACLNQSLDALLSRDLIMKEDYELVSTKPTRTSKVRQLLDTTDIQGEEFAKVIVQKLKDDKQMGLQ	-0.053 ± 0.1
QWIQSKREDIVNQMTEACLNQSLDALLSRDLIMKEDYELVSTKPWRTSKVRQLLDTTDIQGEEFAKVIVQKLKDNKQMGLQ	-0.571 ± 0.1
QWIQSKREDIVNQMTEACLNQSLDALLSRDLIMKEDYELVSTKPTRTSKVRQLLDTTDIQGEEFAKVIEQKLKDNKQMGLQ	-0.178 ± 0.12
QWIQSKREDIVNQMTEACLNQSLDALLSRDLIMKEDYELVSTKPTRTSKVRQLLDTTDIQGEEFAKVISQKLKDNKQMGLQ	-0.57 ± 0.094

— the Human Domainome abundance scans (Beltran et al. 2025)
